Measured values as given in article PMC7480041 (bioRxiv, 2020).
Where a chain is given by its changes, count along the chain named.

T1: recombinant HuCoV-NL63 N protein (100–377) (HuCoV-NL63, UniProt Q6Q1R8 100-377)
T1 sequence: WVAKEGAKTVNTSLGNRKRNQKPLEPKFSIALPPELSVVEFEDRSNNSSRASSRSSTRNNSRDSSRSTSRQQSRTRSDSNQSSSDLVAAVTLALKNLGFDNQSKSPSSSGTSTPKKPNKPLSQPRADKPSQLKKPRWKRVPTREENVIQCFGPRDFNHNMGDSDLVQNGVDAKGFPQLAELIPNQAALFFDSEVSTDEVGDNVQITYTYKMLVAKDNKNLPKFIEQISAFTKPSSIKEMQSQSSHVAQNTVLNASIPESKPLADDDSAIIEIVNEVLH

B1: mBG21 (antibody, V domains shown)
VH: QIQLVQSGPELKKPGETVKISCKASGYTFTDYSMHWVKQAPGKGSKWMGWINTETGEPTYADDFKGRFAFSLETSASTAYLQINNLKNEDTATYFCALRRWGQGTLVTVSS
VL: IVMTQTPKFLLVSAGDRVTITCKASQSVSNDVAWFQQKPGQSPKKLLIYFASNRYTGVPDRFTGSGYGTDFTFTITTVQAEDLAVYFCQQDYSSPWTFGGGTKLEIK
B2: mBG22 (antibody, V domains shown)
VH: B1 VH with S111A
VL: IVMTQTPKFLLVSAGDRVTITCKASQSVSNDVAWFQQKPGQSPKLLIYFASNRYTGVPDRFTGSGYGTDFTFTITTVQAEDLAVYFCQQDYSSPWTFGGGTKLEIK
B3: mBG17 (antibody, V domains shown)
VH: EVKLEESGGGLVQPGGSMKFSCVASGFTFSDYWMNWVRQSPDKGLEWVAEIRLKSNNYATHYAASVKGRFTISRDDSKSSVYLQMNNLRAEDSGIYYCTRSAMDYWGQGTSVTVSS
VL: DIVMSQSPSSLAVSVGEKITMSCKSSQSLLYTSDQKNYLAWFQQKPGQSPKLLIFWASTRDSGVPDRFTGSGSGTDFTLTISSVKAEDLAVYYCQQFYNYPRTFGGGTKLEIK
B4: mBG67 (antibody, V domains shown)
VH: EVQLVESGGGLVQPGGSLKLSCAASGFTFSNYGMSWVRQTPDKRLELVATINRNGGSTYYLDSVKVRFTISRDNAKSTLFLQLSSLKSDDTAMYYCARIYDFDEDYFDVWGAGTTVTVSS
VL: QIVLTQSPAIMSASLGERVTMTCTASSSVSSSYLHWYQQKPGSSPKLWIYSTSNLASGVPARFSGSGSGTSYSLTISSMEAEDAATYYCLQYHRSPWTFGGGTKLEIK

Columns and labels:
Experiment in all cases: ELISA
[1] = biological target: recombinant SARS-CoV N protein (133–422) (SARS-CoV, UniProt P59595)
Sequence of recombinant SARS-CoV N protein (133–422) (SARS-CoV, UniProt P59595) (P59595 133-422): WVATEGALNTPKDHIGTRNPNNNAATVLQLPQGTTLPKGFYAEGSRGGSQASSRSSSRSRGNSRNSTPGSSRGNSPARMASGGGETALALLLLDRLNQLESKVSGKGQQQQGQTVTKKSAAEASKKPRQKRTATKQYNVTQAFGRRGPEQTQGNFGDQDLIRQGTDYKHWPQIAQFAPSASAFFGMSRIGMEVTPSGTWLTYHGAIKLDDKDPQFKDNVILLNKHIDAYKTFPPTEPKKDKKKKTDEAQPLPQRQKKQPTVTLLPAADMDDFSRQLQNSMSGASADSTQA

[2] = biological target: recombinant HuCoV-NL63 N protein (100–377) (HuCoV-NL63, UniProt Q6Q1R8)
[3] = biological target: T1, recombinant HuCoV-NL63 N protein …
[4] = biological target: recombinant SARS-CoV N protein (133–422) (SARS-CoV, UniProt P59595 133-422)
Sequence of recombinant SARS-CoV N protein (133–422) (SARS-CoV, UniProt P59595 133-422) (P59595 133-422): as above

Binder | corrected average ELISA signal [1] | corrected average ELISA signal [2] | corrected average ELISA signal [3] | corrected average ELISA signal [4]
B1 | 1.49 | 0.47 | – | –
B2 | – | – | 0.51 | 0.76
B3 | – | – | 0.54 | 1.39
B4 | – | – | – | 0.39
